This assay deals with HDAC1 binding to H4K5,12diac. The assay can be described thus: In vitro competition with HDAC1 for immobilized H4K5,12diac peptides (direct binding pull down). The following applies: full length ATAD2 0.22 μM pre-incubated 2 h, then 0.1 μM HDAC1 2 h; 1 μM peptide. How it is done: H4 peptides (1-25) conjugated with Biotin was immobilized on Streptavidin-coupled Dynabeads for 2 hours at 4 °C and incubated with nuclear extract from MCF7 cells. Nuclear extract was prepared by first isolating nucleus in hypotonic buffer (10 mM Tris-HCl pH 8.5, 10 mM NaCl, 0.5 mM TCEP and 0.1 % NP-40) and disrupting nuclear envelop in high salt buffer (20 mM Tris-HCl pH 8.5, 420 mM NaCl, 0.5 mM TCEP, 0.1 % Triton X-100, 25 % Glycerol) for 2 hours at 4 °C. Soluble nuclear extract was harvested by centrifugation at 20000 g for 20 min and diluted to 1:3 in buffer without NaCl in order to achieve physiological salt concentration, 140 mM. The nuclear extract was incubated with the immobilized peptides on the Streptavidin-Dynabeads overnight at 4 °C. Next day, the beads were washed three times with washing buffer (20 mM Tris-HCl pH 8.5, 140 mM NaCl, 0.5 mM TCEP, 0.1 % Triton X-100, 25 % Glycerol) and twice with high salt buffer. Bound proteins were recovered by boiling the beads in 1X sample buffer for 5 min. at 95 °C and analyzed by SDS-PAGE and Western Blotting. For direct binding experiments 1 μM of immobilized histone peptides on Streptavidin-Dynabeads were incubated with indicated amounts of ligands for 2 hours at 4 °C. After stringent washing as described above, bound proteins were analyzed in Western Blotting.

The values that follow come from publication PMC5342555, “ATAD2 is an epigenetic reader of newly synthesized histone marks during DNA replication” (Oncotarget, 2016).

B1: WT ATAD2: recombinant FLAG-tagged full length ATAD2 purified from HEK 293 cells (protein)
chain: MVVLRSSLELHNHSAASATGSLDLSSDFLSLEHIGRRRLRSAGAAQKKPAATTAKAGDGSSVKEVETYHRTRALRSLRKDAQNSSDSSFEKNVEITEQLANGRHFTRQLARQQADKKKEEHREDKVIPVTRSLRARNIVQSTEHLHEDNGDVEVRRSCRIRSRYSGVNQSMLFDKLITNTAEAVLQKMDDMKKMRRQRMRELEDLGVFNETEESNLNMYTRGKQKDIQRTDEETTDNQEGSVESSEEGEDQEHEDDGEDEDDEDDDDDDDDDDDDDDEDDEDEEDGEEENQKRYYLRQRKATVYYQAPLEKPRHQRKPNIFYSGPASPARPRYRLSSAGPRSPYCKRMNRRRHAIHSSDSTSSSSSEDEQHFERRRKRSRNRAINRCLPLNFRKDELKGIYKDRMKIGASLADVDPMQLDSSVRFDSVGGLSNHIAALKEMVVFPLLYPEVFEKFKIQPPRGCLFYGPPGTGKTLVARALANECSQGDKRVAFFMRKGADCLSKWVGESERQLRLLFDQAYQMRPSIIFFDEIDGLAPVRSSRQDQIHSSIVSTLLALMDGLDSRGEIVVIGATNRLDSIDPALRRPGRFDREFLFSLPDKEARKEILKIHTRDWNPKPLDTFLEELAENCVGYCGADIKSICAEAALCALRRRYPQIYTTSEKLQLDLSSINISAKDFEVAMQKMIPASQRAVTSPGQALSTVVKPLLQNTVDKILEALQRVFPHAEFRTNKTLDSDISCPLLESDLAYSDDDVPSVYENGLSQKSSHKAKDNFNFLHLNRNACYQPMSFRPRILIVGEPGFGQGSHLAPAVIHALEKFTVYTLDIPVLFGVSTTSPEETCAQVIREAKRTAPSIVYVPHIHVWWEIVGPTLKATFTTLLQNIPSFAPVLLLATSDKPHSALPEEVQELFIRDYGEIFNVQLPDKEERTKFFEDLILKQAAKPPISKKKAVLQALEVLPVAPPPEPRSLTAEEVKRLEEQEEDTFRELRIFLRNVTHRLAIDKRFRVFTKPVDPDEVPDYVTVIKQPMDLSSVISKIDLHKYLTVKDYLRDIDLICSNALEYNPDRDPGDRLIRHRACALRDTAYAIIKEELDEDFEQLCEEIQESRKKRGCSSSKYAPSYYHVMPKQNSTLVGDKRSDPEQNEKLKTPSTPVACSTPAQLKRKIRKKSNWYLGTIKKRRKISQAKDDSQNAIDHKIESDTEETQDTSVDHNETGNTGESSVEENEKQQNASESKLELRNNSNTCNIENELEDSRKTTACTELRDKIACNGDASSSQIIHISDENEGKEMCVLRMTRARRSQVEQQQLITVEKALAILSQPTPSLVVDHERLKNLLKTVVKKSQNYNIFQLENLYAVISQCIYRHRKDHDKTSLIQKMEQEVENFSCSR
modifications: left off: tagGFP, end not stated, kept
notes: recombinant FLAG-tagged full length ATAD2 purified from HEK 293 cells
For B1, the “competition with HDAC1 for interaction with H4K5,12diac” value is “competes”.

B2: ATPase mutant ATAD2: recombinant full length ATPase inactive mutant ATAD2 (K473T and E532Q) (protein)
chain: MVVLRSSLELHNHSAASATGSLDLSSDFLSLEHIGRRRLRSAGAAQKKPAATTAKAGDGSSVKEVETYHRTRALRSLRKDAQNSSDSSFEKNVEITEQLANGRHFTRQLARQQADKKKEEHREDKVIPVTRSLRARNIVQSTEHLHEDNGDVEVRRSCRIRSRYSGVNQSMLFDKLITNTAEAVLQKMDDMKKMRRQRMRELEDLGVFNETEESNLNMYTRGKQKDIQRTDEETTDNQEGSVESSEEGEDQEHEDDGEDEDDEDDDDDDDDDDDDDDEDDEDEEDGEEENQKRYYLRQRKATVYYQAPLEKPRHQRKPNIFYSGPASPARPRYRLSSAGPRSPYCKRMNRRRHAIHSSDSTSSSSSEDEQHFERRRKRSRNRAINRCLPLNFRKDELKGIYKDRMKIGASLADVDPMQLDSSVRFDSVGGLSNHIAALKEMVVFPLLYPEVFEKFKIQPPRGCLFYGPPGTGTTLVARALANECSQGDKRVAFFMRKGADCLSKWVGESERQLRLLFDQAYQMRPSIIFFDQIDGLAPVRSSRQDQIHSSIVSTLLALMDGLDSRGEIVVIGATNRLDSIDPALRRPGRFDREFLFSLPDKEARKEILKIHTRDWNPKPLDTFLEELAENCVGYCGADIKSICAEAALCALRRRYPQIYTTSEKLQLDLSSINISAKDFEVAMQKMIPASQRAVTSPGQALSTVVKPLLQNTVDKILEALQRVFPHAEFRTNKTLDSDISCPLLESDLAYSDDDVPSVYENGLSQKSSHKAKDNFNFLHLNRNACYQPMSFRPRILIVGEPGFGQGSHLAPAVIHALEKFTVYTLDIPVLFGVSTTSPEETCAQVIREAKRTAPSIVYVPHIHVWWEIVGPTLKATFTTLLQNIPSFAPVLLLATSDKPHSALPEEVQELFIRDYGEIFNVQLPDKEERTKFFEDLILKQAAKPPISKKKAVLQALEVLPVAPPPEPRSLTAEEVKRLEEQEEDTFRELRIFLRNVTHRLAIDKRFRVFTKPVDPDEVPDYVTVIKQPMDLSSVISKIDLHKYLTVKDYLRDIDLICSNALEYNPDRDPGDRLIRHRACALRDTAYAIIKEELDEDFEQLCEEIQESRKKRGCSSSKYAPSYYHVMPKQNSTLVGDKRSDPEQNEKLKTPSTPVACSTPAQLKRKIRKKSNWYLGTIKKRRKISQAKDDSQNAIDHKIESDTEETQDTSVDHNETGNTGESSVEENEKQQNASESKLELRNNSNTCNIENELEDSRKTTACTELRDKIACNGDASSSQIIHISDENEGKEMCVLRMTRARRSQVEQQQLITVEKALAILSQPTPSLVVDHERLKNLLKTVVKKSQNYNIFQLENLYAVISQCIYRHRKDHDKTSLIQKMEQEVENFSCSR
modifications: left off: tagGFP, end not stated, kept
With B2, the “competition with HDAC1 for interaction with H4K5,12diac” value was “not”.
